Where two headings read alike, the source gives them in different places. Values belong to the binder of their own block, whether it stands above or below them.
Tests used:
[1] = molecular target: Recombinant Aα392–610 fragment (human fibrinogen αC-domain) (human); assay: ELISA
[2] = molecular target: Fibrin made from surface-adsorbed or chip-immobilized human fibrinogen by thrombin (most probably monomeric) (human) (UniProt P02679); assay: ELISA
[3] = molecular target: Recombinant Aα221–610 fragment (human fibrinogen αC region) (human); assay: ELISA
[4] = molecular target: Recombinant Aα504–610 fragment (C-terminal sub-domain of the αC-domain) (human); assay: ELISA
[5] = molecular target: Fibrin made from surface-adsorbed or chip-immobilized human fibrinogen by thrombin (most probably monomeric) (human) (UniProt P02679); assay: ELISA; remark: listed apart in the source
[6] = molecular target: T1, Plasminogen-depleted human fibrinogen (human, UniProt P02671-2 36-644; P02675 45-491; P02679 27-453); assay: ELISA
[7] = molecular target: Recombinant Aα392–610 fragment (human fibrinogen αC-domain) (human); assay: ELISA; remark: listed apart in the source
[8] = molecular target: Fibrin made from surface-adsorbed or chip-immobilized human fibrinogen by thrombin (most probably monomeric) (human) (UniProt P02679); assay: ELISA; remark: listed apart in the source
[9] = molecular target: Recombinant Aα392–610 fragment (human fibrinogen αC-domain) (human); assay: ELISA; remark: listed apart in the source
[10] = molecular target: Recombinant Aα504–610 fragment (C-terminal sub-domain of the αC-domain) (human); assay: ELISA; remark: listed apart in the source
[11] = molecular target: Fibrin made from surface-adsorbed or chip-immobilized human fibrinogen by thrombin (most probably monomeric) (human) (UniProt P02679); assay: ELISA; remark: listed apart in the source
[12] = molecular target: T1, Plasminogen-depleted human fibrinogen; assay: ELISA; remark: listed apart in the source
[13] = molecular target: Polymeric fibrin (cross-linked fibrin oligomers/polymers prepared on the sensor chip) (human) (UniProt P02679); assay: SPR
[14] = molecular target: Polymeric fibrin (cross-linked fibrin oligomers/polymers prepared on the sensor chip) (human) (UniProt P02679); assay: SPR; remark: listed apart in the source
[15] = molecular target: Fibrinogen D1 fragment (human); assay: ELISA
[16] = molecular target: Fibrinogen D1 fragment (human); assay: ELISA; remark: listed apart in the source
[17] = molecular target: T2, Human α2-antiplasmin, Asn-α2-AP form (human, UniProt P08697 40-491); assay: SPR
T2 sequence (looked up): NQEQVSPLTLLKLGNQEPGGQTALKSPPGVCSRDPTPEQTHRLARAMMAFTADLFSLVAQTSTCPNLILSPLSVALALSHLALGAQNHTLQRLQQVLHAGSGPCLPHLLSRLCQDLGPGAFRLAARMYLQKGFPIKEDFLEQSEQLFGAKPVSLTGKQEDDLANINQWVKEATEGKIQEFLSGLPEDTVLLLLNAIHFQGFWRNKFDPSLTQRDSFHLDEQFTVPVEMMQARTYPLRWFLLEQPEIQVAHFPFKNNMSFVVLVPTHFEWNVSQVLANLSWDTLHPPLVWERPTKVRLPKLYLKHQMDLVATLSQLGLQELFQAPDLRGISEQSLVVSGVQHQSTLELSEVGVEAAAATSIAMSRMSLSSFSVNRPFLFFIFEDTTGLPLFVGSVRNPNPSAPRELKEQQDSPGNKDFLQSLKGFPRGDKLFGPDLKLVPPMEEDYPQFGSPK

B1: Biotinylated human α2-antiplasmin (Asn-α2-AP form) (natural protein, UniProt P08697 40-491, looked up)
chain: NQEQVSPLTLLKLGNQEPGGQTALKSPPGVCSRDPTPEQTHRLARAMMAFTADLFSLVAQTSTCPNLILSPLSVALALSHLALGAQNHTLQRLQQVLHAGSGPCLPHLLSRLCQDLGPGAFRLAARMYLQKGFPIKEDFLEQSEQLFGAKPVSLTGKQEDDLANINQWVKEATEGKIQEFLSGLPEDTVLLLLNAIHFQGFWRNKFDPSLTQRDSFHLDEQFTVPVEMMQARTYPLRWFLLEQPEIQVAHFPFKNNMSFVVLVPTHFEWNVSQVLANLSWDTLHPPLVWERPTKVRLPKLYLKHQMDLVATLSQLGLQELFQAPDLRGISEQSLVVSGVQHQSTLELSEVGVEAAAATSIAMSRMSLSSFSVNRPFLFFIFEDTTGLPLFVGSVRNPNPSAPRELKEQQDSPGNKDFLQSLKGFPRGDKLFGPDLKLVPPMEEDYPQFGSPK
modifications: biotin (EZ-Link Sulfo-NHS-Biotinylation Kit), sites not stated
Kd [1]: 157 nM | Kd [2]: 109 nM | Kd [3]: 131 nM | Kd [4]: 123 nM | Kd [5]: 102 nM | Kd [6]: 179 nM | Kd [7]: 111 nM | Kd [8]: 25 nM | Kd [9]: 141 nM | Kd [10]: 130 nM | Kd [11]: 101 nM | Kd [12]: 102 nM

B3: Biotinylated human α2-antiplasmin (Asn-α2-AP form), P08697 40-491 (natural protein)
chain: NQEQVSPLTLLKLGNQEPGGQTALKSPPGVCSRDPTPEQTHRLARAMMAFTADLFSLVAQTSTCPNLILSPLSVALALSHLALGAQNHTLQRLQQVLHAGSGPCLPHLLSRLCQDLGPGAFRLAARMYLQKGFPIKEDFLEQSEQLFGAKPVSLTGKQEDDLANINQWVKEATEGKIQEFLSGLPEDTVLLLLNAIHFQGFWRNKFDPSLTQRDSFHLDEQFTVPVEMMQARTYPLRWFLLEQPEIQVAHFPFKNNMSFVVLVPTHFEWNVSQVLANLSWDTLHPPLVWERPTKVRLPKLYLKHQMDLVATLSQLGLQELFQAPDLRGISEQSLVVSGVQHQSTLELSEVGVEAAAATSIAMSRMSLSSFSVNRPFLFFIFEDTTGLPLFVGSVRNPNPSAPRELKEQQDSPGNKDFLQSLKGFPRGDKLFGPDLKLVPPMEEDYPQFGSPK
modifications: here or on the partner: biotin (EZ-Link Sulfo-NHS-Biotinylation Kit), sites not stated
Kd [15]: 197 nM | Kd [16]: 165 nM

Now from value to binder:

Kd [13]: 45 nM | Kd [14]: 68 nM
B2: Human α2-antiplasmin, Asn-α2-AP form (natural protein)
chain: NQEQVSPLTLLKLGNQEPGGQTALKSPPGVCSRDPTPEQTHRLARAMMAFTADLFSLVAQTSTCPNLILSPLSVALALSHLALGAQNHTLQRLQQVLHAGSGPCLPHLLSRLCQDLGPGAFRLAARMYLQKGFPIKEDFLEQSEQLFGAKPVSLTGKQEDDLANINQWVKEATEGKIQEFLSGLPEDTVLLLLNAIHFQGFWRNKFDPSLTQRDSFHLDEQFTVPVEMMQARTYPLRWFLLEQPEIQVAHFPFKNNMSFVVLVPTHFEWNVSQVLANLSWDTLHPPLVWERPTKVRLPKLYLKHQMDLVATLSQLGLQELFQAPDLRGISEQSLVVSGVQHQSTLELSEVGVEAAAATSIAMSRMSLSSFSVNRPFLFFIFEDTTGLPLFVGSVRNPNPSAPRELKEQQDSPGNKDFLQSLKGFPRGDKLFGPDLKLVPPMEEDYPQFGSPK

Kd [17]: 1400 ± 400 nM
B4: Fibrin-derived D-D:E complex (complex)
chain 1: VSEDLRSRIEVLKRKVIEKVQHIQLLQKNVRAQLVDMKRLEVDIDIKIRSCRGSCSRALAREVDLKDYEDQQKQLEQVIAKDLLPSR
chain 2: DNENVVNEYSSELEKHQLYIDETVNSNIPTNLRVLRSILENLRSKIQKLESDVSAQMEYCRTPCTVSCNIPVVSGKECEEIIRKGGETSEMYLIQPDSSVKPYRVYCDMNTENGGWTVIQNRQDGSVDFGRKWDPYKQGFGNVATNTDGKNYCGLPGEYWLGNDKISQLTRMGPTELLIEMEDWKGDKVKAHYGGFTVQNEANKYQISVNKYRGTAGNALMDGASQLMGENRTMTIHNGMFFSTYDRDNDGWLTSDPRKQCSKEDGGGWWYNRCHAANPNGRYYWGGQYTWDMAKHGTDDGVVWMNWKGSWYSMRKMSMKIRPFFPQQ
chain 3: KMLEEIMKYEASILTHDSSIRYLQEIYNSNNQKIVNLKEKVAQLEAQCQEPCKDTVQIHDITGKDCQDIANKGAKQSGLYFIKPLKANQQFLVYCEIDGSGNGWTVFQKRLDGSVDFKKNWIQYKEGFGHLSPTGTTEFWLGNEKIHLISTQSAIPYALRVELEDWNGRTSTADYAMFKVGPEADKYRLTYAYFAGGDAGDAFDGFDFGDDPSDKFFTSHNGMQFSTWDNDNDKFEGNCAEQDGSGWWMNKCHAGHLNGVYYQGGTYSKASTPNGYDNGIIWATWKTRWYSMKKTTMKIIPFNRLTIGEGQQHHLGGAK
chain 4: GPRVVERHQSACKDSDWPFCSDEDWNYKCPSGCRMKGLIDEVNQDFTNRINKLKNSLFEYQK
chain 5: GHRPLDKKREEAPSLRPAPPPISGGGYRARPAKAAATQKKVERKAPDAGGCLHADPDLGVLCPTGCQLQEALLQQERPIRNSVDELNNNVEAVSQTSSSSFQYMYLLK
chain 6: YVATRDNCCILDERFGSYCPTTCGIADFLSTYQTKVDKDLQSLEDILHQVENKTSEVKQLIK
modifications: covalent γ-γ cross-linking between the D regions

From article PMC2932838 (Biochemistry, 2010)
